Patent US20100129806A1

Legend:
[1] = molecular target: myc-IP6K2 R133A mutant (human) (UniProt Q9UHH9); experiment: cell-based or functional assay
[2] = molecular target: myc-IP6K2 E138-9A mutant (glutamates 138 and 139 mutated) (human) (UniProt Q9UHH9); experiment: cell-based or functional assay
Sequence of myc-IP6K2 E138-9A mutant (glutamates 138 and 139 mutated) (human) (Q9UHH9 other isoform, or with tags, fused parts or gaps mutant): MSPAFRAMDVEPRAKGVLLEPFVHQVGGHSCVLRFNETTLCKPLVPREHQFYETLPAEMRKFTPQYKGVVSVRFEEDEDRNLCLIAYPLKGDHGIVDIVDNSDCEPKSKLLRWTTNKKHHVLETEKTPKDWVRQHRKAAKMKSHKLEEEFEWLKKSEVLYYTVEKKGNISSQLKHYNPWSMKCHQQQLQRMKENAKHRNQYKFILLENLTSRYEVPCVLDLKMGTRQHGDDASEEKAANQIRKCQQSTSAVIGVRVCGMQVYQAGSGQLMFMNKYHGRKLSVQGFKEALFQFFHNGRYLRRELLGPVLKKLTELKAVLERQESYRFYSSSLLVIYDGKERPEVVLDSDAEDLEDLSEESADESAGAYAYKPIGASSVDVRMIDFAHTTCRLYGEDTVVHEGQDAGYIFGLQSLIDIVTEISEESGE

Sequence of myc-IP6K2 R133A mutant (human) (Q9UHH9 whole entry R133A): as the sequence (Q9UHH9 other isoform, or with tags, fused parts or gaps mutant) above, with R133A, A138E, A139E counted along it

IP6K2 enzyme activity in vivo (fold of IP6K2wt) [1]: 2 | IP6K2 enzyme activity in vivo (fold of IP6K2wt) [2]: 2
Substance: endogenous HSP90 of human cells (HEK 293, HeLa), also used purified from HeLa cells (from UniProt P07900 2-732)
cell death of transfected HeLa cells (fold of wild type IP6K2) [1]: 5 | cell death of transfected HeLa cells (fold of wild type IP6K2) [2]: 5
